Literature values as cited in PMC2744109.
Values joined by “and” are separate entries in the source; they are usually repeats but may differ in a detail not shown here. Identical values can stand only once.

Columns and labels:
[1] = target: Factor VIII (Homo sapiens) (UniProt P00451)
[2] = target: LRP1 CR7-CR8 (Homo sapiens) (UniProt Q07954); experiment: ITC
[3] = target: LRP1 CR5-CR7 (Homo sapiens) (UniProt Q07954)

LRP1, sequence (Q07954 20-4544): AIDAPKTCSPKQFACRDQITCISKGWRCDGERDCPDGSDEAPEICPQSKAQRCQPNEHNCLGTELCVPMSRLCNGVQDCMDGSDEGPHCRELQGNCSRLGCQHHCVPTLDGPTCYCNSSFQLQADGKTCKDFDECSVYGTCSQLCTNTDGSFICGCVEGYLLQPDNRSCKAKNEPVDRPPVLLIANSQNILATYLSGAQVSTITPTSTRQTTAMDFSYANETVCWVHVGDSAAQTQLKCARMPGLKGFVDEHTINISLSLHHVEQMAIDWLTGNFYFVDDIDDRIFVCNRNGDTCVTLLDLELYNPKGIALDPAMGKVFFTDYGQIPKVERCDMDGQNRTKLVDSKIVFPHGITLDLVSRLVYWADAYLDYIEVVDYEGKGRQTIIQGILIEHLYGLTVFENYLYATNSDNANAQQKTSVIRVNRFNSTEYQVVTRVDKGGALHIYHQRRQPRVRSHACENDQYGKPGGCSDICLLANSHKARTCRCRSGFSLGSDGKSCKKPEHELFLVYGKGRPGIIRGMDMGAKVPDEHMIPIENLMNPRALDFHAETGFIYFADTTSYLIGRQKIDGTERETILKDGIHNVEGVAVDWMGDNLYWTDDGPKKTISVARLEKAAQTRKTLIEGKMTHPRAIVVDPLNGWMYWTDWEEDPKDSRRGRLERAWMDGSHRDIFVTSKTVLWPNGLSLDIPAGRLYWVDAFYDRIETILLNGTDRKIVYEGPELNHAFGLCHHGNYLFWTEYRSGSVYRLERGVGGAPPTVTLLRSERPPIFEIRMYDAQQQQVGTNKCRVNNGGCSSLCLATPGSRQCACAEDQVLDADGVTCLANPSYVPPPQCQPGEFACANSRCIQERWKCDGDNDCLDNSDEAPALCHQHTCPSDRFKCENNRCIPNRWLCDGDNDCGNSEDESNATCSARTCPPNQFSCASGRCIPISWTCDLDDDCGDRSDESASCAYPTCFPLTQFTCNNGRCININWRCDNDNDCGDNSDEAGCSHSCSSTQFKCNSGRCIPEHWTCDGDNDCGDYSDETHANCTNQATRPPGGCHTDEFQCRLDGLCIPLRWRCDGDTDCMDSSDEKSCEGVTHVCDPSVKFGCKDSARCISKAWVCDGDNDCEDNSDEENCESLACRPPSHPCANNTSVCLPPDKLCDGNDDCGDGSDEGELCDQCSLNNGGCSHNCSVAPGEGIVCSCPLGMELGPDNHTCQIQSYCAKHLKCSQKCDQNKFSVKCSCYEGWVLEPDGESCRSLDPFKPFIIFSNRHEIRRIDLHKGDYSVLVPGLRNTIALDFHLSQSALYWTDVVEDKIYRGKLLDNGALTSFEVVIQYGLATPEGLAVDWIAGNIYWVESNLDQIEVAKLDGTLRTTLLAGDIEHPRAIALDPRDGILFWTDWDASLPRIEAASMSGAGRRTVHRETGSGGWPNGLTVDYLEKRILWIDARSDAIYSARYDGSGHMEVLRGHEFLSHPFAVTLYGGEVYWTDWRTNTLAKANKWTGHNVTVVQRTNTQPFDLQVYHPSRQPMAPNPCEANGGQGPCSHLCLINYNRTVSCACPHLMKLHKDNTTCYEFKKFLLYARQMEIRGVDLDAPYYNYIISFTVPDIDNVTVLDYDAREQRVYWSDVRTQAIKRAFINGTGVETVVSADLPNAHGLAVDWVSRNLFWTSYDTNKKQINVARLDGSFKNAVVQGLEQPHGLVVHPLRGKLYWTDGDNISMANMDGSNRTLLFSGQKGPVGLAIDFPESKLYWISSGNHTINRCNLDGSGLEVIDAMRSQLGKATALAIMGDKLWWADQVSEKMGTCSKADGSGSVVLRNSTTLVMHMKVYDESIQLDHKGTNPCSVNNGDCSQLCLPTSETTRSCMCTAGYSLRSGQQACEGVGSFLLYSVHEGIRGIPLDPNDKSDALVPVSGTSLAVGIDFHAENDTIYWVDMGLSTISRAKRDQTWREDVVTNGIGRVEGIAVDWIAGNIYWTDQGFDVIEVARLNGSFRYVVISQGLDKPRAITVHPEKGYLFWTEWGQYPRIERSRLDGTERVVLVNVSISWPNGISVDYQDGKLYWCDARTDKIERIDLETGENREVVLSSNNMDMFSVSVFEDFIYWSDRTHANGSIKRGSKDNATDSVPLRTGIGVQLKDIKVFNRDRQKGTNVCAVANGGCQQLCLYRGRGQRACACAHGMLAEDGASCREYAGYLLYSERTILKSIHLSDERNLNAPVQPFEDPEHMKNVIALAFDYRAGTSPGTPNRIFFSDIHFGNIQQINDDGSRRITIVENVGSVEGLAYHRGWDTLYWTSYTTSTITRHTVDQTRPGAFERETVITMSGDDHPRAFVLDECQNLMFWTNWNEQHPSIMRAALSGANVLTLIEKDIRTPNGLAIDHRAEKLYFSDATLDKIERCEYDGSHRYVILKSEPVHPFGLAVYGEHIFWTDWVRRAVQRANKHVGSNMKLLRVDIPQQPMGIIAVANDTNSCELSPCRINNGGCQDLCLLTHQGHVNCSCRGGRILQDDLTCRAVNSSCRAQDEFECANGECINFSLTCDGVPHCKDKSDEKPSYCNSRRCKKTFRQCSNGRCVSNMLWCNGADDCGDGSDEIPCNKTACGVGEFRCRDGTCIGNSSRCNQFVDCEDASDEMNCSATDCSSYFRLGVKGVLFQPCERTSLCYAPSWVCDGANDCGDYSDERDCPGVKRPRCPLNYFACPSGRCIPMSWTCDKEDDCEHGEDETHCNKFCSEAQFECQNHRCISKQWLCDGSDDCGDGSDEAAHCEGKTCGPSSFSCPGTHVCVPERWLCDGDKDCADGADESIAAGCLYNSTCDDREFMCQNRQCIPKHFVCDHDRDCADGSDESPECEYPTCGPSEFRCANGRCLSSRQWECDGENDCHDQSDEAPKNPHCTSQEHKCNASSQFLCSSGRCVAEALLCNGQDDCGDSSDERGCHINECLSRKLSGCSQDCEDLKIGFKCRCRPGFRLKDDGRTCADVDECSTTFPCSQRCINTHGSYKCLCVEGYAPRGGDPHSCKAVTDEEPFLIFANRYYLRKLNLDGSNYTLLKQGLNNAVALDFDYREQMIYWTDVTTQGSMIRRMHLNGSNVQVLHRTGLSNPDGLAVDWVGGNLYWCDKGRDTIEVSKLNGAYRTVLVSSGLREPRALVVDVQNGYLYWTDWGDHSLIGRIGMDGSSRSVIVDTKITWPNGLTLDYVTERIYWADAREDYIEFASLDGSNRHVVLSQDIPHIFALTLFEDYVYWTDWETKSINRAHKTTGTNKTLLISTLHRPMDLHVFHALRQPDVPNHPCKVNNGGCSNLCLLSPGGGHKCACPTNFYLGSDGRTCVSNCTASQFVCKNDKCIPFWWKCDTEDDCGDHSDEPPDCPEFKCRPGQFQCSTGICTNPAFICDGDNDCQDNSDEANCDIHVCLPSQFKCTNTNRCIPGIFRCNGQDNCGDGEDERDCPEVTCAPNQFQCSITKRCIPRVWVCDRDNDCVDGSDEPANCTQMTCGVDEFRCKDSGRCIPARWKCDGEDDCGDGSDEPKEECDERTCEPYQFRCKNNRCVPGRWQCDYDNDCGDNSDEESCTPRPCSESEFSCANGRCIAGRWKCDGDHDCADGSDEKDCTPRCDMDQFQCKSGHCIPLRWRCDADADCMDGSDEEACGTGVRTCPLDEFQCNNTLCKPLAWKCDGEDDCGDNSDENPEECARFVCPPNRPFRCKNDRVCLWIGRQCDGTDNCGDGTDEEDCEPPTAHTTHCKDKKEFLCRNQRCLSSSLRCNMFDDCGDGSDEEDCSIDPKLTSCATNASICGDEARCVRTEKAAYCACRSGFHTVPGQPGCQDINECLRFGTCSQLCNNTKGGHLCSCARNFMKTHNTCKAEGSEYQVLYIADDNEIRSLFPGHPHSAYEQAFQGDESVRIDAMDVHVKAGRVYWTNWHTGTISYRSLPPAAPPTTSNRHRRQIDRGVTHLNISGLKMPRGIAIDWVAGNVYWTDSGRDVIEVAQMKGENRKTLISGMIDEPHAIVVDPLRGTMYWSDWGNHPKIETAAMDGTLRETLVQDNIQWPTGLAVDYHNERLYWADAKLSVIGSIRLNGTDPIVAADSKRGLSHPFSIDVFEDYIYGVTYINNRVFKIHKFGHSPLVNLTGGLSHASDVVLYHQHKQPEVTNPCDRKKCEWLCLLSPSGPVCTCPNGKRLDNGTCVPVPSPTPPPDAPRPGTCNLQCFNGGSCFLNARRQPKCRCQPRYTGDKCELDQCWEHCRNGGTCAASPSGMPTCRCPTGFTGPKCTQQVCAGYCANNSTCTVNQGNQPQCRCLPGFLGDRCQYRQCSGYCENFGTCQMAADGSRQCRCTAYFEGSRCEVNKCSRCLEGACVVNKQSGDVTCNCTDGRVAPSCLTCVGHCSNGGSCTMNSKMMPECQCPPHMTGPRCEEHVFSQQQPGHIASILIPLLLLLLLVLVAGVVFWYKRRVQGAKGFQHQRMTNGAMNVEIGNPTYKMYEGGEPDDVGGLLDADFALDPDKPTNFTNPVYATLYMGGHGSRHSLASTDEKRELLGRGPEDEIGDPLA
UniProt P00451, sequence (P00451 760-1332): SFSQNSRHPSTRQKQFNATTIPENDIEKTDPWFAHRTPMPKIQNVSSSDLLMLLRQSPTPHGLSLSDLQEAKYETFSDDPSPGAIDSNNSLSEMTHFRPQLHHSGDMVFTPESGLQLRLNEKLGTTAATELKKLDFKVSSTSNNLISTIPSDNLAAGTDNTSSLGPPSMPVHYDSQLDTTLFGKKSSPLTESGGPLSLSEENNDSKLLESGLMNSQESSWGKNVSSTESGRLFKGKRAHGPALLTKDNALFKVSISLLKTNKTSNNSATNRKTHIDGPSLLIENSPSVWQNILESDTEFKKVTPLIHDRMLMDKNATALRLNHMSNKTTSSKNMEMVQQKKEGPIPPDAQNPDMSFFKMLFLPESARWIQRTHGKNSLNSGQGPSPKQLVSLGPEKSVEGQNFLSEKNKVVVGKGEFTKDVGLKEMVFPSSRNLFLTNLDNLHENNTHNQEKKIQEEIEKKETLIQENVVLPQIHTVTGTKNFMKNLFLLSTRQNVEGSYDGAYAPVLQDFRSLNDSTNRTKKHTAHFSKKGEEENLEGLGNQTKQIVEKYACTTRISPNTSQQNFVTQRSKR

Row | Kd [1] | Kd [2] | Kd [3] | Substance
1 | 116 nM and 60 nM | – | – | LRP1 (from UniProt Q07954)
2 | – | 1000 nM | – | RAP D3 (from UniProt P30533)
3 | – | 1000 nM | 1.6 nM | RAP (from UniProt P30533)
